In PMC4537775 (Cell, 2015):
Changes are numbered by the printed parent chain. Numbers in names are those of the source. Read-outs that look alike come from different tables or passages of the source.

Experiments:
[1] = target: the molecule itself; experiment: SEC
[2] = target: the molecule itself; experiment: SEC; remark: listed apart in the source

B1: full-length IstB (AAA+ ATPase subunit of the Geobacillus stearothermophilus IS21 family member IS5376) (natural protein, UniProt Q45619 1-251, looked up)
chain: MKERIHEYCHRLHLPVMAERWSAMAEYASTHNISYSEFLFRLLEAEIVEKQARSIQTLIKLSKLPYRKTIDTFDFTAQPSVDERRIRELLTLSFIDRKENILFLGPPGIGKTHLAISIGMEAIARGYKTYFITAHDLVNQLRRADQEGKLEKKLRVFVKPTVLIIDEMGYLKLDPNSAHYLFQVIARRYEHAPIILTSNKSFGEWGEIVGDSVLATAMLDRLLHHSIIFNLKGESYRLREKRLQEEKQKDQ
- stoichiometry N [1]: 2

B2: full-length IstB Walker-A mutant K111A (natural protein, Geobacillus stearothermophilus, UniProt Q45619 1-251, looked up)
chain: B1 chain with K111A
- stoichiometry N [2]: 2

B3: full-length IstB Walker-B mutant E167Q (natural protein, Geobacillus stearothermophilus, UniProt Q45619 1-251, looked up)
chain: B1 chain with E167Q
- stoichiometry N [2]: 2

B4: full-length IstB arginine finger mutant R221A (natural protein, Geobacillus stearothermophilus, UniProt Q45619 1-251, looked up)
chain: B1 chain with R221A
- stoichiometry N [2]: 2

B5: full-length IstB sensor-II mutant R237A (natural protein, Geobacillus stearothermophilus, UniProt Q45619 1-251, looked up)
chain: B1 chain with R237A
- stoichiometry N [2]: 2
